In article doi:10.1101/2022.09.28.508705:
One block for each substance: values may come before it.

Experiments:
Assay in all cases: crystal structure
[1] = molecular target: mVSG397 N-terminal domain (T. brucei brucei, strain Lister 427)
[2] = molecular target: mVSG531 N-terminal domain (T. brucei brucei, strain Lister 427)
[3] = molecular target: mVSG1954 N-terminal domain (T. brucei brucei, strain Lister 427)

stoichiometry N [1]: 2
Substance: mVSG397 N-terminal domain (domain or fragment)

stoichiometry N [2]: 2
Substance: mVSG531 N-terminal domain (domain or fragment)

stoichiometry N [3]: 3
Substance: mVSG1954 N-terminal domain (domain or fragment)
